Key:
Assay in all cases: IEDB peptide-MHC binding, cellular MHC/competitive/fluorescence; ≥ and ≤ were set here for values at or beyond the usual limits of such assays
HLA-A*02:01 = molecular target: HLA-A*02:01
HLA-A*02:02 = molecular target: HLA-A*02:02
HLA-A*02:03 = molecular target: HLA-A*02:03
HLA-A*02:06 = molecular target: HLA-A*02:06
HLA-A*68:02 = molecular target: HLA-A*68:02
[1] = source organism: Vaccinia virus WR
[2] = source organism: Influenza A virus
[3] = source organism: Mammarenavirus guanaritoense
[4] = source organism: Mammarenavirus machupoense
[5] = source organism: Mammarenavirus whitewaterense

Row | Sequence | IC50 (HLA-A*02:01; [1]) | IC50 (HLA-A*02:02; [1]) | IC50 (HLA-A*02:03; [1]) | IC50 (HLA-A*02:06; [1]) | IC50 (HLA-A*68:02; [1]) | further results
1 | EMQLKIDKLT | 55.9 µM | 9.66 µM | 6.82 µM | ≥ 70 µM | 43.1 µM | –
2 | PLPSLEYGA | 14.7 µM | 11.4 µM | 18.9 µM | 42.5 µM | 30.9 µM | –
3 | PLSPDTCLLA | 6.97 µM | 11.2 µM | 9.31 µM | 19.9 µM | 15.2 µM | –
4 | NLPFDKTTIMA | – | – | – | – | – | IC50 (HLA-A*02:01; [2]): 25 µM; IC50 (HLA-A*02:02; [2]): 7.7 µM; IC50 (HLA-A*02:03; [2]): 8.43 µM; IC50 (HLA-A*02:06; [2]): ≥ 70 µM; IC50 (HLA-A*68:02; [2]): 11 µM
5 | PTEMVDVSM | 47.4 µM | 10.6 µM | 41.3 µM | 40.2 µM | 52.2 µM | –
6 | EIITGNKVKT | ≥ 70 µM | ≥ 70 µM | ≥ 70 µM | ≥ 70 µM | ≥ 70 µM | –
7 | YVIGLLPQS | – | – | – | – | – | IC50 (HLA-A*02:01; [3]): ≥ 70 µM; IC50 (HLA-A*02:02; [3]): ≥ 70 µM; IC50 (HLA-A*02:03; [3]): ≥ 70 µM; IC50 (HLA-A*02:06; [3]): 48.1 µM; IC50 (HLA-A*68:02; [3]): ≥ 70 µM
8 | RLEVIGLTT | 28.8 µM | 20 µM | 13.9 µM | ≥ 50 µM | 13.1 µM | –
9 | HAKYMVTDKT | 51.8 µM | 9.03 µM | 35 µM | 64.9 µM | ≥ 70 µM | –
10 | LAYYNSCML | 46.1 µM | 12.8 µM | 15.5 µM | 21.5 µM | 13.3 µM | –
11 | PTEMVDVSMM | 41.9 µM | 11.5 µM | ≥ 70 µM | 12.1 µM | ≥ 70 µM | –
12 | PVDLVKSSFV | 39.3 µM | 6.61 µM | 9.64 µM | 26.6 µM | 10.8 µM | –
13 | TVLGVSIL | – | – | – | – | – | IC50 (HLA-A*02:01; [2]): 6.79 µM; IC50 (HLA-A*02:02; [2]): 23.9 µM; IC50 (HLA-A*02:03; [2]): 14.2 µM; IC50 (HLA-A*02:06; [2]): 5.69 µM; IC50 (HLA-A*68:02; [2]): 15.8 µM
14 | ALSYSAGA | – | – | – | – | – | IC50 (HLA-A*02:01; [2]): 39.3 µM; IC50 (HLA-A*02:02; [2]): 16.9 µM; IC50 (HLA-A*02:03; [2]): 10.7 µM; IC50 (HLA-A*02:06; [2]): ≥ 70 µM; IC50 (HLA-A*68:02; [2]): ≥ 70 µM
15 | VVKDKIKLPT | 40.2 µM | 37.3 µM | 8.6 µM | 29.1 µM | 42.7 µM | –
16 | VIPFDDIVRT | 24.4 µM | 62.8 µM | 50.3 µM | 18.2 µM | 42.2 µM | –
17 | YNCKCCWFA | – | – | – | – | – | IC50 (HLA-A*02:01; [4]): 42.9 µM; IC50 (HLA-A*02:02; [4]): 16.1 µM; IC50 (HLA-A*02:03; [4]): 31.9 µM; IC50 (HLA-A*02:06; [4]): ≥ 70 µM; IC50 (HLA-A*68:02; [4]): 52.9 µM
18 | PLKDVERLQM | 45.5 µM | 6.16 µM | 44 µM | 37.4 µM | ≥ 70 µM | –
19 | IAYERMCNIL | – | – | – | – | – | IC50 (HLA-A*02:01; [2]): ≥ 70 µM; IC50 (HLA-A*02:02; [2]): 24 µM; IC50 (HLA-A*02:03; [2]): 16.5 µM; IC50 (HLA-A*02:06; [2]): 7.91 µM; IC50 (HLA-A*68:02; [2]): 24.6 µM
20 | CTEETKRNIA | ≥ 70 µM | ≥ 70 µM | 50.1 µM | ≥ 70 µM | 15.2 µM | –
21 | LAIKNYYRKT | ≥ 70 µM | 36.8 µM | 7.18 µM | ≥ 70 µM | 39.7 µM | –
22 | IASAPQQLCT | 36.5 µM | 53.2 µM | ≥ 70 µM | 8.31 µM | 16.4 µM | –
23 | YCHGILLKDV | – | – | – | – | – | IC50 (HLA-A*02:01; [5]): 11.4 µM; IC50 (HLA-A*02:02; [5]): ≥ 70 µM; IC50 (HLA-A*02:03; [5]): 13 µM; IC50 (HLA-A*02:06; [5]): 15 µM; IC50 (HLA-A*68:02; [5]): 57.6 µM
24 | LVSKHWELT | ≥ 70 µM | 12.2 µM | 14.9 µM | ≥ 70 µM | ≥ 70 µM | –
25 | ITETIPIGM | ≥ 70 µM | 12.4 µM | 42.8 µM | 7.69 µM | 6.13 µM | –
26 | SVDEEGCGPL | 32.1 µM | 14.8 µM | 38.7 µM | 12.7 µM | 35.3 µM | –
